According to the RNAGym collection of RNA variant scans (doi:10.1073/pnas.2313332121):
Fewer inactive variants are shown than the library holds.

B1: TPR 5TU (parent)
chain: GGAUCUUCUCGAUCUAACAAAAAAGACAAAUCUGCCACAAAGCUUGAGAGCAUCUUCGGAUGCAGAGGCGGCAGCCUUCGGUGGCGCGAUAGCGCCAACGUUCUCAACUAUGACACGCAAAACGCGUGCUCCGUUGAAUGGAGUUUAUCAUG

Variants of: B1
Test: polymerase ribozyme fitness, log enrichment relative to wild type (log ratio); higher = more active; in vitro selection for triplet polymerase activity
Method in brief: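 Each subunit of a heterodimeric triplet polymerase ribozyme was mutagenized into a library by PCR, transcribed, and subjected to one round of in vitro selection, run in triplicate. Libraries were annealed with a biotinylated primer, the partner subunit and triplets, incubated frozen at −7 °C, and extended constructs were gel-excised, captured on streptavidin beads and recovered by RT-PCR. Input and output libraries were sequenced on Illumina, keeping genotypes with ≥10 input reads and ≥1 read per output. Fitness is log base 2 of genotype enrichment divided by wild-type enrichment, from inverse-variance-weighted replicate averages.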

Variant	polymerase ribozyme fitness (log ratio)
GGAUCUUCUCGAUCUAACAAACAAGACAAAUCUGCCACAAAGCUUGAUAGCAUCUUCGGGUGCAGAGGCGGCAGCCUUCGGUGGCGCGAUAGCGCCAACGUUCUCAACUAUGACACGCAAAACGCGUGCUCCGUUGAAUGGAGUUUAUCAUG	0.164
GGAUCUUCUCGAUCUAACAAACAAGACAAAUCUGCCACAAAGCUUGAGAGCAUCUUCGGAUGCAGAGGCGGCAGCCUUCGGUGGCGCGAUACCGCCAACGUUCUCAACCAUGACACGCAAAACGCGUGCUCCGUUGAAUGGAGUUUAACAUG	-4.16
GGAUCUUCUCGAUCUAACAAACAAGACAAAUCUGCCACAAAGCUUGAGAGCAUCUUCGGAUGCAGAGGCGGCAGCCUUCGGUGGCGCGAUAGCGCCAACGUGCUCAACUGUGACACGCAAAACGCGUGCUCCGUUGAAUGGAGUUUAUCAUG	≤ -4.2
GGAUCUUCUCGAUCUAACAAACAAGACAAAUCUGCCACAAAGCUUGAGAGCAUCUUCGGAUGCAGAGGCGGCAGCCUUCGGUGGCGCGAUAGCGCCAACGGUCUCAACUAUGACACGCAAAACGCGUGCUCCGUUGAAUGGAGUUUAUCAUG	0.0923
GGAUCUUCUCGAUCUAACAAAGAAGACAAAUCUGCCACAAAGCUUGAGAGCAUCUUCGGAUGCAAAGGCGGCAGCCUUCGGUGGCGCGAUAGCGCCUACGUUCUCAACUAUGACACGCAAAACGCGUGCUCCGUUGAAUGGAGUUUAUCAUG	-2.68
GGAUCUUCUCGAUCUAACAAAGAAGACAAAUCUGUCACAAAGCUUGAGAGCAUCUUCGGAUGCAGAGGCGGCAGCCUUCGGUGGCGCGAUAGGGCCAACGUUCUCAACUAUGACACGCAAAACGCGUGCUCCGUUGAAUGGCGUUUAUCGUG	≤ -4.2
GGAUCUUCUCGAUCUAACAAAGAAGACAAAUCUGCCACAAAGCUUGAGAGCAUCUUCGGAUGCAGAGGCGGCAGCCUUCGGUGGCGCGAUAACGCCAACGUUCUCAAGUAUGACACGCAAAACGCGUGCUCCGUUGAAUGGAGUUUAUCAUG	≤ -4.2
GGAUCUUCUCGAUCUAACAAACAAGACAAAUCAGCCACAAAGCUUGAGAACAUCUUCGGAUGCAGUGGCGGCAGCCUUCGGUGGCGCGAUAGUGCCAACCUUCUCAACUAUGACACGCAAAACGCGUGCUCCGUUGAGUGGAGUUUAUAAUG	≤ -4.2
GGAUCUUCUCGAUCUAACAAACAAGACAAAUCUGCCACAAAGCUUGAGAGCAUCUUCGGAUGCAGAGGCGGCAGCCUUCGGUGGCUCGAUAGCGCCAACGUUCUCAACUAUGACACGCAAAACGCGUGCUACGUUGAAUGGAGUUUAUCAUG	≤ -4.2
GGAUCUUCUCGAUCUAACAAAGAGGACAAAUCUGCCACAAAGCUUGAGAGCAUCUUCGGAUGCAGAGGCGGCAGCCUUCGGUGGCGCGAUAUCGCCAACGUUCUCAACUAUGACACGCAAAACGCGUGCUCCGUUGAAUGGAGUUUAUCAUG	≤ -4.2
GGAUCUUCUCGAUCUAACAAACAAGACAAAUCUGCCACAAAGCUUGAGAGCAUCUUCGGAUGCAGAGGCGGCAGCCUUCGGUGGCCCGAUAGCGCCAACGUUCUCAACUAUGACACGCAAAACGCGUGCUCCGUUGAAUGGAGUUUAUCAUG	-2.83
GGAUCUUCUCGAUCUAACAAACAAGACAAAUCUGCCACAAAGCUUGAGAGCAUCUUCGGAUGCAGAGGCGGCAGCCUUCGGUGACGCGAUAGCGCCAAAGUUCUCAACUAUGACACGCAAAACGCGUGCUCCGUUGAAUGGAGUUUAUCAUU	≤ -4.2
GGAUCUUCUCGAUCUAACAAAGAAGACAAAUCUGCCACAAAGCUUGAGAGCAUCUUCGGAUGCAGAGGCGGCAGCCUUCGGUGGUGCGAUAGCGCCAACGUUCUCAACUAUGACACGCAAAACGCGUGCUCCCUUGAAUGGAGUUUAUCAUG	-1.48
GGAUCUUCUCGAUCUAACAAACAAGACAAAUCUGCCACAAAUCUUGAGGGUAUCUUCGGAUGCAGAGGCGGCAGCCUUCGGUGGCGCGAUAACGCCAACGUUCUCAACUAUGACACGCAAAACGCGUGCGCCGUUGAAUGGAGUUUAUCAUG	≤ -4.2
GGAUCUUCUCGAUCUAACAAACAAGACAAAUCUGCCACAAAGCUUGAGAGCAUCUAUGGAUGCAGAGGCGGCAGCCUUCGGUGGCGCGAUAGCGCCAACGUUCGCAACUAUGACACGCAAAACGCGUGCUCCGUCGAAUGGAGUUUAUCAUG	-3.35
GGAUCUUCUCGAUCUAACAAAGAAGACAAAUUUGCCACAAAGCUUGAGAGCAUCUUCGGAUGCAGAGGCGGCAGCCUUCGGUGGCGCGAUAGCGCCAACGUUCUCAACUAUGACACGCAGAACGUGUGCUCCGUUGAAUGGAGUUUAUCAUG	-3.24
GGAUCUUCUCGAUCUAACAAACAAGACAAAUCUGCCACAAAGCUUGAGAGCAUCUUCGGAUGCAGAGGCGGCAGCCUUCGGUGCCGCGAUAGCGCCAACGUUCUCAACUAUGACACGCAAAACGCGUGCUCCUUUGAAUGGAGUUUAUCAUG	≤ -4.2
GGAUCUUCUCGAUCUAACAAAGAAGACUGAUCUGCCCCAAAGCUUGAAAGCAUCUUCGGAUGCCGAGGCGGCAGCCUUCGGUGGGGCGAUAGCGCCAAUGUUCUCAACUAUGACACGCAAAACGAGUGCUCCGUUGGAUGGAGUUUAUCAUG	≤ -4.2
GGAUCUUCUCGAUCUAACAAAGAUGACAAAUCUGCCACAAAGCUUGAGAGCAUCUUCGCAUGCAGAGGCGGCAGCCUUCGGUGGCGCGAUAGCGCGAUCGUUCUCAACUAUGACACGCAAAACGCGUGCUCCGUUGAAUGGAGUUUAUCAUG	0.453

Variant	polymerase ribozyme fitness (log ratio)
GGAUCUUCUCGAUCUAACAAACAAGACAAAUCUGCCACAAACCUUGAGAGCAUCUUCGGAUGCAGAGGGGGCAGCCUUCGGUGGCGCGAUUGCGCCAACGUUCUCAACUAUGACACGCAAAACGCGUGCUCCGUUGAAUGGAGUUUAUCAUG	≤ -4.2
GGAUCUUCUCGAUCUAACAAACAAGACAAAUCUUCCACAAAGCUUGAGAGCAUCUUCGGAUGCAGAGGCGGCAGCCUUCGGAGGCGCGAUAGAGCCAACGUUCUCAACUAUGACACGCAAAACGCGUGCUCCGUUGAAUGGAGUUUAUCAUG	≤ -4.2
GGAUCUUCUCGAUCUAACAAAGAAGACAAAUCUGCCACAAAGCUUGAGAGGAUCUUCGGAUGCAGAGGCGGCAGCCUUCGGUGGCGCGAUUGCUCCAACGUUCUCAACUAUGACACGCAAAACGCGUGCUCCGUUGAAUGGAGCUUAUCAUG	≤ -4.2
GGAUCUUCUCGAUCUAACAAAGAAGACAAAUCUGCCACAAAGCUUGAGAGCAUCUUCAGAUGCAGAGGCGGCAGACUUCGGUGGCUCGAUAGCGCCAAAGUUUUCAACUAUGACACGCAAAACGCGUGCUCCGUUGAAUGCAGUUUAUCAUG	≤ -4.2
GGAUCUUCUCGAUCUAACAAAGAAGACAAAUCUGCCACAAAGCUUGAGAGCAUCUUUGGAUGCAGAGGCAGCAGCCUUCGGUGGCGCGAUCGCGCCAACGUUCUCAACUAUGACACGCAAAACGCGUGCUCCGUUGAAUGGAGUUUAUCAUG	≤ -4.2
GGAUCUUCUCGAUCUAACAAACAAGACAAAUCUGCCACAAAGCUUGAGAGCAUCUUCGGAUGCAGAGGCGGCAGCCUUCGGUGGAGCGAUAGCGCCAACGUUCUCAACUAUGACACGCAAAACGCGUGCUCCGUUGGAUGGAGUUUAUCAUG	-2.49
GGAUCUUCUCGAUCUAACAAACAAGACAAAUCUGCCACAAAGCUUGAGAGCAUCUUCGGAUUCAGAGGCGGCUGCCUUCGGUGGCGCUAUAGCGCCAAUGUUCUCAACUAUGACACGAAAAACGCGUGCUCCGUUGAAUGGAGCUUAUCAUG	≤ -4.2
GGAUCUUCUCGAUCUAACAAAGUAGACAAAUCUGCCACAAAGCUUGAGAGCAGCUUAGGAUGCAGAGGCGGCAGCCUUCGGUGUCGCGAUAGCGCCAACGUUCUCAACUAUGAUACGCAAAACGCGUGUUCCGUUGAAUGGAGUUUAUCAUG	≤ -4.2
GGAUCUUCUCGAUCUAACAAACAAGACAAAUCUGCCACAAAGCUUGAGAGCAACUUCGGAUGCAGAGGCGGCAGCCUUCGGUGCCGCGAUAGCGCCAACGUUCUCAACUAUAACACGCAAAACGCGUGAUCCGGUGAAUGGAGUUUCUCAUG	≤ -4.2
GGAUCUUCUCGAUCUAACAAACAAGACAAAUCUGCCACAAAGCUUGAGAGCAUCUUCGGAUGCAGAGGCGGCAGCCUUCGGUGGCGCGAUACCGCCAACGUUCUCAACUAUGAUACGCAAAACGCGUGCUCCGUUGAAUGGAGUUUAUCCUG	≤ -4.2
GGAUCUUCUCGAUCUAACAAAGAAGACAAAUCUGCCACAAAGCUUGAGAGCAUUUUCGGAUGCAGAGGCGGCAGCCUUCGGUGGCGCGAUAGCGCCAACGUUCUCAACUAUGACACGCAAAACGCGUGCUCCGUUGAAUGGAGUUUAUCAUG	0.651
GGAUCUUCUCGAUCUAACAAACAAGACAAAUCUGCCACAAAGCUUAAGAGCAUCUUCGCAUGCAGAGGCGGCAGCCUUCGGUGGCGCGAUCGCGCCAAGGGUCUCAACUAUGACAGGCAAAACGCGUGCUCCGUUGACUGGAGUUUAUCAUG	≤ -4.2
GGAUCUUCUCGAUCUAACAAAGAAGACAAAUCUGCCACAAAGCUUGAGAGUAUCUUCGGAUGCAGAGGCGGCAGCCUUCGGUAGCGCGAUAGCGCCAACGUUCUCAACUAUGACACGCAAAACGCGUGCUCCGUUGAAUGGAGUUUAUCAUG	0.818
GGAUCUUCUCGAUCUAACAAACAAGACAAAUCUGCCACAAAGCUUGAGAGCAUCUUCGGAUGCAGAGGCGGCAGCCUUCGGUGGCGCGAUAGCGCCAACGUUCUCAACUAUGACACGCAAAACGCGUGCUGCGUUGAAUGGAGUUUAUCAUG	-3.49
GGAUCUUCUCGAUCUAACAAACAAGACAAAUCUGCCACAAAUCUUGAGAGCAUCUUCGGAUGCAGAGGCGGCUGCCUUCGCUGGCGCGAUUGCGCUAACGUUCUCAGCUAUGACACGCAAAACGCGUGCUCCGUUGAAUGGACUUUAUCAUG	≤ -4.2
GGAUCUUCUCGAUCUAACAAACAAGACAAAUCUGCCACAAAGCUUGAGAGCAUCUUCGGAUGCAGAGGCGGCAGCCUUCGGUGGCGCGAUAGCGCAUACGCUCUCAACUAUGACACGCAAAACGCGUGCUCCGUUGAAUGGAGUUUAUCAUG	-1.53
GGAUCUUCUCGAUCUAACAAAGAAGACAAAUCUGCCACAAAGCUUGAGAGCAUCUUCGGAUGCAGAGGCGGCAGCCUUCGGUGGCGCGAUAGCGCCAACGUUCUCAACUAUGACACACAAAACGCGUGCUCCGUUGAAUGGAGUUUAUCAUG	1.13
GGAUCUUCUCGAUCUAACAAAGAAGACAAAUCUGCCAUAAAGCUUGAGAGCAUCUUCGGAUGCAGAGGCGGCAGCCUUCGGUGGCGCGAUAGCGUCAACGUUCUCACCUAUGACACGCAAAACGCGUACUCCGUUGAAUGGAGUUUAUCAUG	≤ -4.2
GGAUCUUCUCGAUCUAACAAACAAGACAAAUCUGCCACAAAGCUUGAGAGCAUCUUCGGAUGCAGAGGCGGCAGCCUUCGGUGGCGCGAUAGCGCCAACGUUCUCAACUAUGACACGCAAAACGUGUGCUCCGUUGAAUGGAGUUUAUCAUG	-0.469
